Experimental data: patent US20180155451A1 (published 2018)

T1: FcγRIIa R (human FcγRIIa, allotype R, Arg at position 131), extracellular domain with C-terminal His tag (human, UniProt P12318 34-217)
T1 construct: extracellular domain; expressed in FreeStyle293 cells; analyte in Biacore; also called 2aR; FcgRIIa R
T1 sequence (looked up): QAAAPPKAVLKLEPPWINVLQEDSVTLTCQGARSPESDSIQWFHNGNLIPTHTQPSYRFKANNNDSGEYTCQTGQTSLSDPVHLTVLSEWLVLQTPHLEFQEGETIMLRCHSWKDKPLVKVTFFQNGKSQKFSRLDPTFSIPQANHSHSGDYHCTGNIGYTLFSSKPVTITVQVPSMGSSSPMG

B1: GpH7-B3 variant T335_18N/GpL16-k0 (antibody, human IgG1, kappa)
heavy: not shown
light: DIVMTQSPLSLPVTPGEPASISCQASESLVHSNRNTYLHWYLQKPGQSPQLLIYKVSNRFSGVPDRFSGSGSGTDFTLKISRVEAEDVGVYYCSQNTHVPPTFGQGTKVEIERTVAAPSVFIFPPSDEQLKSGTASVVCLLNNFYPREAKVQWKVDNALQSGNSQESVTEQDSKDSTYSLSSTLTLSKADYEKHKVYACEVTHQGLSSPVTKSFNRGEC
notes: homodimerized antibody, mutation in both H chains; also called Ho Ab
B2: GpH7-B3 variant V266_06M/GpL16-k0 (antibody, human IgG1, kappa)
heavy: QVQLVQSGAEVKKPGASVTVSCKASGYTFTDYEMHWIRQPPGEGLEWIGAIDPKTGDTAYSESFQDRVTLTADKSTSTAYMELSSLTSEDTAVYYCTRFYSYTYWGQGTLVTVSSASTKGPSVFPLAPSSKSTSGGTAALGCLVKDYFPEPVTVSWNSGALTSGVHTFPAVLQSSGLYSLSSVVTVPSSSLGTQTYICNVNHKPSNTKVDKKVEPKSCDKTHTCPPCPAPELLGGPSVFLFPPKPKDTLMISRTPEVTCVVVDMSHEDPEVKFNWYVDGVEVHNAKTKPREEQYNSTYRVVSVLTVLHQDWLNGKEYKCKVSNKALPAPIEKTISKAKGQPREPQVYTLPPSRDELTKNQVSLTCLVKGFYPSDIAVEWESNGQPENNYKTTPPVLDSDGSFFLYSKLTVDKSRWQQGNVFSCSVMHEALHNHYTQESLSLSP
light: B1 light
notes: as for B1
B3: GpH7-B3 variant Y300_18N/GpL16-k0 (antibody, human IgG1, kappa)
heavy: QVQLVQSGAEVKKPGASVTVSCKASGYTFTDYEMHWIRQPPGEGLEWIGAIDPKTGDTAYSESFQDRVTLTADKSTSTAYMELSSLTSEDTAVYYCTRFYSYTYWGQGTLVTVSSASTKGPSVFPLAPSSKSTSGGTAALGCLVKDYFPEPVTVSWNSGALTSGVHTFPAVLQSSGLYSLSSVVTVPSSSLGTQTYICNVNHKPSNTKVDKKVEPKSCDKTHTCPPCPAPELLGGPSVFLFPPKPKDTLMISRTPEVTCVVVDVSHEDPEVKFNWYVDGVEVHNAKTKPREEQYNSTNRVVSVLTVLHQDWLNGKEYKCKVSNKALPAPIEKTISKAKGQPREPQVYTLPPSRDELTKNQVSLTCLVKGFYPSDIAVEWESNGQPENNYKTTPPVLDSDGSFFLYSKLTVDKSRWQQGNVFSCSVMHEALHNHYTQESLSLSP
light: B1 light
notes: as for B1
B4: GpH7-B3 variant Y296_18N/GpL16-k0 (antibody, human IgG1, kappa)
heavy: not shown
light: B1 light
notes: as for B1
B5: GpH7-B3 variant S337_12R/GpL16-k0 (antibody, human IgG1, kappa)
heavy: not shown
light: B1 light
notes: as for B1
B6: GpH7-B3 variant S324_06M/GpL16-k0 (antibody, human IgG1, kappa)
heavy: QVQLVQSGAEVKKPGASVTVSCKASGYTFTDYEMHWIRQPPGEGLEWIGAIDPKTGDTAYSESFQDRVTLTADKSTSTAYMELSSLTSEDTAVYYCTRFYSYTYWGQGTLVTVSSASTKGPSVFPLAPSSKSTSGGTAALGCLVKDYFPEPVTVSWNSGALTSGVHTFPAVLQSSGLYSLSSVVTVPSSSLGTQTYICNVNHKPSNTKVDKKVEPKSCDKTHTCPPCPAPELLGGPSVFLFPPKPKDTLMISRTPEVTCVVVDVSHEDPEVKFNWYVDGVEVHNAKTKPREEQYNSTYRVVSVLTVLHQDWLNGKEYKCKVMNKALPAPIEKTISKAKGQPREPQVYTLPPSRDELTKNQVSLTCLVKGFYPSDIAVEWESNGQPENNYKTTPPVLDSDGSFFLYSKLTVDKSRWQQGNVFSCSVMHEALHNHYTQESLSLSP
light: B1 light
notes: as for B1
B7: GpH7-B3 variant T335_15Y/GpL16-k0 (antibody, human IgG1, kappa)
heavy: not shown
light: B1 light
notes: as for B1
B8: GpH7-B3 variant Y296_13S/GpL16-k0 (antibody, human IgG1, kappa)
heavy: not shown
light: B1 light
notes: as for B1
B9: GpH7-B3 variant S337_07I/GpL16-k0 (antibody, human IgG1, kappa)
heavy: not shown
light: B1 light
notes: as for B1
B10: GpH7-B3 variant T335_13S/GpL16-k0 (antibody, human IgG1, kappa)
heavy: not shown
light: B1 light
notes: as for B1
B11: GpH7-B3 variant S337_09D/GpL16-k0 (antibody, human IgG1, kappa)
heavy: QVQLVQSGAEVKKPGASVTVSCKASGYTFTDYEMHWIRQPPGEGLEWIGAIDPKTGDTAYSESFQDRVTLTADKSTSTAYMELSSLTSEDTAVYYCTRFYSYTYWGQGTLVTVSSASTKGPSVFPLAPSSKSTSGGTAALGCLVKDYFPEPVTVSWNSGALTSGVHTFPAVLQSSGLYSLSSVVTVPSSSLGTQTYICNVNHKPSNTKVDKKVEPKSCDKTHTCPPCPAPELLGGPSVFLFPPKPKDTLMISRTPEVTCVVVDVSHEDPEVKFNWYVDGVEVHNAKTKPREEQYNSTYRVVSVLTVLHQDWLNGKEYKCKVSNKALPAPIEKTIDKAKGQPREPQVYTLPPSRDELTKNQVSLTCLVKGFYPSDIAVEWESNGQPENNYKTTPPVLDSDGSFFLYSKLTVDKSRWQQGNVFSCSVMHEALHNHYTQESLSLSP
light: B1 light
notes: as for B1
B12: GpH7-B3 variant Y296_20W/GpL16-k0 (antibody, human IgG1, kappa)
heavy: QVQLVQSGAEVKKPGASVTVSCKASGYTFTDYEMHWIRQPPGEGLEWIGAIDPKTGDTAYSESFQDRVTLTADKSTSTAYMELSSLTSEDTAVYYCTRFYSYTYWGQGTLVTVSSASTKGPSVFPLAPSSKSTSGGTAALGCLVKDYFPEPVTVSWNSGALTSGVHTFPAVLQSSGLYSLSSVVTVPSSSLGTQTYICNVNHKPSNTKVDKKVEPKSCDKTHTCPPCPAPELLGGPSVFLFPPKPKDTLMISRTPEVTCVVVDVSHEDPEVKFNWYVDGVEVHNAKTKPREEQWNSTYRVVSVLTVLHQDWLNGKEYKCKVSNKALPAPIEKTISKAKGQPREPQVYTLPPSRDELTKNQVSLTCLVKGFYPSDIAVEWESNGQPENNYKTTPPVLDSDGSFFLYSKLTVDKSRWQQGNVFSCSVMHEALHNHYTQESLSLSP
light: B1 light
notes: as for B1
B13: GpH7-B3 variant T335_01G/GpL16-k0 (antibody, human IgG1, kappa)
heavy: not shown
light: B1 light
notes: as for B1
B14: GpH7-B3 variant S337_03V/GpL16-k0 (antibody, human IgG1, kappa)
heavy: not shown
light: B1 light
notes: as for B1
B15: GpH7-B3 variant S337_06M/GpL16-k0 (antibody, human IgG1, kappa)
heavy: not shown
light: B1 light
notes: as for B1
B16: GpH7-B3 variant Y296_10E/GpL16-k0 (antibody, human IgG1, kappa)
heavy: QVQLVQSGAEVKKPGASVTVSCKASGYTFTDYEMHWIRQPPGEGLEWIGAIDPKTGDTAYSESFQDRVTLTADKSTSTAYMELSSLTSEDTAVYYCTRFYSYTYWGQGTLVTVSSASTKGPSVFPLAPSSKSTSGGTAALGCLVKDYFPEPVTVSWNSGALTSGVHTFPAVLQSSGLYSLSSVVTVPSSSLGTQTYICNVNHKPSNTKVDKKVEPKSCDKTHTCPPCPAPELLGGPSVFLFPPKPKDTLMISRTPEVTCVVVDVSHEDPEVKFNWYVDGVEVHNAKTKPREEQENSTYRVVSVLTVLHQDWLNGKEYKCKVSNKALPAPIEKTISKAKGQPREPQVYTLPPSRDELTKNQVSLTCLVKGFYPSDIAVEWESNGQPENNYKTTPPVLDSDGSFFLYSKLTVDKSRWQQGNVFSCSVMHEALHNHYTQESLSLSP
light: B1 light
notes: as for B1
B17: GpH7-B3 variant S337_18N/GpL16-k0 (antibody, human IgG1, kappa)
heavy: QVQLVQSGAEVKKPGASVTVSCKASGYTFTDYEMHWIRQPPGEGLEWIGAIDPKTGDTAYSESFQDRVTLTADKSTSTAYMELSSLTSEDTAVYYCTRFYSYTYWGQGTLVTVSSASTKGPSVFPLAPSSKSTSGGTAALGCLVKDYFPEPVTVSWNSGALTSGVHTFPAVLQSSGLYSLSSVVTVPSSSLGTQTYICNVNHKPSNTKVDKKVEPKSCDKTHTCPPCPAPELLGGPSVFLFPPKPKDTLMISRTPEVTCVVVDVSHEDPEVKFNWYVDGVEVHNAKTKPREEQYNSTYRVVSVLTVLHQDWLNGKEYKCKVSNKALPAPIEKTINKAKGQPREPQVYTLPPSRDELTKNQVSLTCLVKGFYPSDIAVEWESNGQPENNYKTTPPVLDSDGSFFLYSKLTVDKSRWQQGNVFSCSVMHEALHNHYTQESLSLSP
light: B1 light
notes: as for B1
B18: GpH7-B3 variant Y296_07I/GpL16-k0 (antibody, human IgG1, kappa)
heavy: not shown
light: B1 light
notes: as for B1
B19: GpH7-B3 variant Y296_09D/GpL16-k0 (antibody, human IgG1, kappa)
heavy: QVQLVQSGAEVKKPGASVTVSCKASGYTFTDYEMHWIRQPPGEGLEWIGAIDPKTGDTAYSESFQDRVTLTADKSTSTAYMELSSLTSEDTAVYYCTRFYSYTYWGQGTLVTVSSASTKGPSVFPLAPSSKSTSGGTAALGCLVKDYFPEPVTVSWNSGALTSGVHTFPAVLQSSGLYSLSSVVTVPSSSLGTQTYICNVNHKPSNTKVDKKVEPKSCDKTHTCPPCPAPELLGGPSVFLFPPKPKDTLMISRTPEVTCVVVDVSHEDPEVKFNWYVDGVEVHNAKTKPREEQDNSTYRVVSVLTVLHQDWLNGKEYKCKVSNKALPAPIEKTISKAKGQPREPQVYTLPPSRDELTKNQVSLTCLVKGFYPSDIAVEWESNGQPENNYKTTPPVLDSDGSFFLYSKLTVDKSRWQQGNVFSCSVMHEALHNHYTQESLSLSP
light: B1 light
notes: as for B1
B20: GpH7-B3 variant S337_15Y/GpL16-k0 (antibody, human IgG1, kappa)
heavy: not shown
light: B1 light
notes: as for B1
B21: GpH7-B3 variant T335_19Q/GpL16-k0 (antibody, human IgG1, kappa)
heavy: not shown
light: B1 light
notes: as for B1
B22: GpH7-B3 variant S337_10E/GpL16-k0 (antibody, human IgG1, kappa)
heavy: not shown
light: B1 light
notes: as for B1
B23: GpH7-B3 variant Y296_04F/GpL16-k0 (antibody, human IgG1, kappa)
heavy: not shown
light: B1 light
notes: as for B1
B24: GpH7-B3 variant T335_16H/GpL16-k0 (antibody, human IgG1, kappa)
heavy: not shown
light: B1 light
notes: as for B1
B25: GpH7-B3 variant S337_20W/GpL16-k0 (antibody, human IgG1, kappa)
heavy: not shown
light: B1 light
notes: as for B1
B26: GpH7-B3 variant S337_08L/GpL16-k0 (antibody, human IgG1, kappa)
heavy: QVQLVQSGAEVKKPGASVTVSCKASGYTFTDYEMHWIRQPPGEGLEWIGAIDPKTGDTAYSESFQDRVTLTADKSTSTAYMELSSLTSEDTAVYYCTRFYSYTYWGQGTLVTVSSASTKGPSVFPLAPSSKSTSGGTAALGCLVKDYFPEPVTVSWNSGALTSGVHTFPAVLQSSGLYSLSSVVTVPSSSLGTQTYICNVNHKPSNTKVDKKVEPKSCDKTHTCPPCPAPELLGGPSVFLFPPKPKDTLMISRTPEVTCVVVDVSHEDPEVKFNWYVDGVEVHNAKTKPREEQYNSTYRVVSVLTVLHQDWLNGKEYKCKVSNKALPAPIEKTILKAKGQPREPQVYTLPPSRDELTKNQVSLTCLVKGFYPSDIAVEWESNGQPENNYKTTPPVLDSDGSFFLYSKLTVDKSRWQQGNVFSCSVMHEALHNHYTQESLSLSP
light: B1 light
notes: as for B1
B27: GpH7-B3 variant T335_20W/GpL16-k0 (antibody, human IgG1, kappa)
heavy: not shown
light: B1 light
notes: as for B1
B28: GpH7-B3 variant Y296_19Q/GpL16-k0 (antibody, human IgG1, kappa)
heavy: not shown
light: B1 light
notes: as for B1
B29: GpH7-B3 variant S337_19Q/GpL16-k0 (antibody, human IgG1, kappa)
heavy: not shown
light: B1 light
notes: as for B1
B30: GpH7-B3 variant S337_16H/GpL16-k0 (antibody, human IgG1, kappa)
heavy: not shown
light: B1 light
notes: as for B1
B31: GpH7-B3 variant Y296_14T/GpL16-k0 (antibody, human IgG1, kappa)
heavy: not shown
light: B1 light
notes: as for B1
B32: GpH7-B3 variant S298_06M/GpL16-k0 (antibody, human IgG1, kappa)
heavy: not shown
light: B1 light
notes: as for B1
B33: GpH7-B3 variant S298_08L/GpL16-k0 (antibody, human IgG1, kappa)
heavy: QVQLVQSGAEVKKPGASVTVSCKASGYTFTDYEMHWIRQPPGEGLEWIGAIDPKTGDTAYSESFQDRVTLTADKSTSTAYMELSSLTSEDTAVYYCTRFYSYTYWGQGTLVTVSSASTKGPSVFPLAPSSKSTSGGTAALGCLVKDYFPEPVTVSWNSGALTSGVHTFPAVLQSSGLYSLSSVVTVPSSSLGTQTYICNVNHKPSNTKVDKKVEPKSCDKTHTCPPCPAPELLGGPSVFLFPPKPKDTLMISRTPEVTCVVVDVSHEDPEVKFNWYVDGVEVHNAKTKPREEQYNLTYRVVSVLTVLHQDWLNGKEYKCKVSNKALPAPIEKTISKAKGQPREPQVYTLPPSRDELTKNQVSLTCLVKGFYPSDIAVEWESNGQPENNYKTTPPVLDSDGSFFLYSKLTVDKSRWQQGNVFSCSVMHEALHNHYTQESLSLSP
light: B1 light
notes: as for B1
B34: GpH7-B3 variant S337_11K/GpL16-k0 (antibody, human IgG1, kappa)
heavy: not shown
light: B1 light
notes: as for B1
B35: GpH7-B3 variant S337_04F/GpL16-k0 (antibody, human IgG1, kappa)
heavy: not shown
light: B1 light
notes: as for B1
B36: GpH7-B3 variant T335_07I/GpL16-k0 (antibody, human IgG1, kappa)
heavy: not shown
light: B1 light
notes: as for B1
B37: GpH7-B3 variant T335_02A/GpL16-k0 (antibody, human IgG1, kappa)
heavy: not shown
light: B1 light
notes: as for B1
B38: GpH7-B3 variant T335_05P/GpL16-k0 (antibody, human IgG1, kappa)
heavy: not shown
light: B1 light
notes: as for B1
B39: GpH7-B3 variant Y296_06M/GpL16-k0 (antibody, human IgG1, kappa)
heavy: not shown
light: B1 light
notes: as for B1
B40: GpH7-B3 variant T335_10E/GpL16-k0 (antibody, human IgG1, kappa)
heavy: not shown
light: B1 light
notes: as for B1
B41: GpH7-B3 variant Y296_16H/GpL16-k0 (antibody, human IgG1, kappa)
heavy: not shown
light: B1 light
notes: as for B1
B42: GpH7-B3 variant S324_04F/GpL16-k0 (antibody, human IgG1, kappa)
heavy: not shown
light: B1 light
notes: as for B1
B43: GpH7-B3 variant T335_12R/GpL16-k0 (antibody, human IgG1, kappa)
heavy: not shown
light: B1 light
notes: as for B1
B44: GpH7-A5/GpH7-B3 variant A330_05P/GpL16-k0 (antibody, human IgG1, kappa)
heavy 1: not shown
heavy 2: not shown
light: B1 light
notes: also called He Ab A330_05P
B45: GpH7-A5/GpH7-B3 variant E333_03V/GpL16-k0 (antibody, human IgG1, kappa)
heavy 1: not shown
heavy 2: not shown
light: B1 light
notes: also called He Ab E333_03V
B46: GpH7-A5/GpH7-B3 variant H268_18N/GpL16-k0 (antibody, human IgG1, kappa)
heavy 1: not shown
heavy 2: not shown
light: B1 light
notes: also called He Ab H268_18N
B47: GpH7-A5/GpH7-B3 variant H268_02A/GpL16-k0 (antibody, human IgG1, kappa)
heavy 1: not shown
heavy 2: not shown
light: B1 light
notes: also called He Ab H268_02A
B48: GpH7-A5/GpH7-B3 variant E333_13S/GpL16-k0 (antibody, human IgG1, kappa)
heavy 1: not shown
heavy 2: not shown
light: B1 light
notes: also called He Ab E333_13S
B49: GpH7-A5/GpH7-B3 variant E333_02A/GpL16-k0 (antibody, human IgG1, kappa)
heavy 1: not shown
heavy 2: not shown
light: B1 light
notes: also called He Ab E333_02A
B50: GpH7-A5/GpH7-B3 variant E333_09D/GpL16-k0 (antibody, human IgG1, kappa)
heavy 1: not shown
heavy 2: not shown
light: B1 light
notes: also called He Ab E333_09D
B51: GpH7-A5/GpH7-B3 variant E333_04F/GpL16-k0 (antibody, human IgG1, kappa)
heavy 1: not shown
heavy 2: not shown
light: B1 light
notes: also called He Ab E333_04F
B52: GpH7-A5/GpH7-B3 variant A330_07I/GpL16-k0 (antibody, human IgG1, kappa)
heavy 1: not shown
heavy 2: not shown
light: B1 light
notes: also called He Ab A330_07I
B53: GpH7-A5/GpH7-B3 variant E333_20W/GpL16-k0 (antibody, human IgG1, kappa)
heavy 1: not shown
heavy 2: not shown
light: B1 light
notes: also called He Ab E333_20W
B54: GpH7-A5/GpH7-B3 variant G236_15Y/GpL16-k0 (antibody, human IgG1, kappa)
heavy 1: not shown
heavy 2: not shown
light: B1 light
notes: also called He Ab G236_15Y

target: T1, FcγRIIa R (human FcγRIIa, allotype R, …); assay: SPR (Biacore), relative binding vs GpH7-B3/GpL16-k0
Method: (§1) Analysis of interaction between objective antibody and the FcγR was carried out using Biacore T100 (GE Healthcare). HBS-EP+ (GE Healthcare) was used as the running buffer, and the measurement temperature was set to 25° C. Chips produced by immobilizing the antigen peptide by the amine coupling method to a Series S Sencor Chip CM5 (GE Healthcare), or alternatively, chips produced by allowing preliminarily biotinylated antigen peptides to interact with and immobilize onto a Series S Sensor Chip SA (certified) (GE Healthcare) were used. Antibodies of interest were captured onto an antigen peptide-immobilized chip, and allowed to interact to each FcγR diluted with running buffer. To regenerate and repeatedly use the chip, the antibodies captured on the chip were washed off by reacting 10 mM glycine-HCl, pH 1.5.
(§2) The FcγR-binding activity of each antibody was assessed primarily using as an indicator the FcγR-binding activity and dissociation constant for FcγR.

Binder | Ho/Con_2aR
B1 | 100 relative, control = 100
B2 | 146 relative, control = 100
B3 | 87.6 relative, control = 100
B4 | 93.7 relative, control = 100
B5 | 100 relative, control = 100
B6 | 118 relative, control = 100
B7 | 107 relative, control = 100
B8 | 88.1 relative, control = 100
B9 | 103 relative, control = 100
B10 | 102 relative, control = 100
B11 | 114 relative, control = 100
B12 | 107 relative, control = 100
B13 | 97.7 relative, control = 100
B14 | 102 relative, control = 100
B15 | 101 relative, control = 100
B16 | 90.2 relative, control = 100
B17 | 103 relative, control = 100
B18 | 83.1 relative, control = 100
B19 | 94.5 relative, control = 100
B20 | 100 relative, control = 100
B21 | 102 relative, control = 100
B22 | 110 relative, control = 100

Binder | Ho/Con_2aR
B23 | 106 relative, control = 100
B24 | 102 relative, control = 100
B25 | 105 relative, control = 100
B26 | 99.4 relative, control = 100
B27 | 101 relative, control = 100
B28 | 88.9 relative, control = 100
B29 | 102 relative, control = 100
B30 | 107 relative, control = 100
B31 | 90.3 relative, control = 100
B32 | 102 relative, control = 100
B33 | 101 relative, control = 100
B34 | 94.6 relative, control = 100
B35 | 98.3 relative, control = 100
B36 | 107 relative, control = 100
B37 | 102 relative, control = 100
B38 | 104 relative, control = 100
B39 | 84 relative, control = 100
B40 | 109 relative, control = 100
B41 | 89.5 relative, control = 100
B42 | 101 relative, control = 100
B43 | 94 relative, control = 100

target: T2, FcγRIIIa extracellular domain with C-terminal His tag (human, UniProt P08637 17-208); assay: SPR relative binding; GpH7-A5/GpH7-B3/GpL16-k0 = 100
T2 construct: extracellular domain; also called FcgRIIIa; 3a; not shown: His tag at the C terminus
T2 sequence (P08637 17-208): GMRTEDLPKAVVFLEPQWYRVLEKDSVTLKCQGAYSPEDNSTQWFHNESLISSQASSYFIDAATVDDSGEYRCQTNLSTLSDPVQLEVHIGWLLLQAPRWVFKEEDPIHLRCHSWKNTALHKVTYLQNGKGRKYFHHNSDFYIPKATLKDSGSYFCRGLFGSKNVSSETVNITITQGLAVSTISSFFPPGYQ
Method: as §1, §2

Binder | He/Con_3a
B44 | 155 % of control
B45 | 103 % of control
B46 | 104 % of control
B47 | 122 % of control
B48 | 103 % of control
B49 | 105 % of control
B50 | 112 % of control
B51 | 101 % of control
B52 | 103 % of control
B53 | 101 % of control
B54 | 121 % of control
